Target: T1, N-terminal domain of S. cerevisiae methionyl-tRNA synthetase (residues 1-160) (S. cerevisiae, UniProt P00958 1-160)
T1 sequence (looked up): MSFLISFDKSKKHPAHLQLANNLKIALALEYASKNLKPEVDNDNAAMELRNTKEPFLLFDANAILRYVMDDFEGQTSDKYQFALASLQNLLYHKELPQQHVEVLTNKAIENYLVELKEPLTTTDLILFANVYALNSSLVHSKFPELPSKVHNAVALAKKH
Test: SEC

B1: N-terminal domain of S. cerevisiae Arc1p (residues 1-122) (domain or fragment, UniProt P46672 1-122, looked up)
chain: MSDLVTKFESLIISKYPVSFTKEQSAQAAQWESVLKSGQIQPHLDQLNLVLRDNTFIVSTLYPTSTDVHVFEVALPLIKDLVASSKDVKSTYTTYRHILRWIDYMQNLLEVSSTDKLEINHD
stoichiometry N: 1
